Consider five molecules from patent publication US20190352408A1 (US Dept. of Health and Human Services, published 2019).

The target in one experiment is T1, cell-surface FLT3 (UniProt P36888 27-993, limits assumed).
T1 construct: whole, on cells; also called FLT3 on FLT3-positive RS4; 11 cells
T1 sequence (looked up): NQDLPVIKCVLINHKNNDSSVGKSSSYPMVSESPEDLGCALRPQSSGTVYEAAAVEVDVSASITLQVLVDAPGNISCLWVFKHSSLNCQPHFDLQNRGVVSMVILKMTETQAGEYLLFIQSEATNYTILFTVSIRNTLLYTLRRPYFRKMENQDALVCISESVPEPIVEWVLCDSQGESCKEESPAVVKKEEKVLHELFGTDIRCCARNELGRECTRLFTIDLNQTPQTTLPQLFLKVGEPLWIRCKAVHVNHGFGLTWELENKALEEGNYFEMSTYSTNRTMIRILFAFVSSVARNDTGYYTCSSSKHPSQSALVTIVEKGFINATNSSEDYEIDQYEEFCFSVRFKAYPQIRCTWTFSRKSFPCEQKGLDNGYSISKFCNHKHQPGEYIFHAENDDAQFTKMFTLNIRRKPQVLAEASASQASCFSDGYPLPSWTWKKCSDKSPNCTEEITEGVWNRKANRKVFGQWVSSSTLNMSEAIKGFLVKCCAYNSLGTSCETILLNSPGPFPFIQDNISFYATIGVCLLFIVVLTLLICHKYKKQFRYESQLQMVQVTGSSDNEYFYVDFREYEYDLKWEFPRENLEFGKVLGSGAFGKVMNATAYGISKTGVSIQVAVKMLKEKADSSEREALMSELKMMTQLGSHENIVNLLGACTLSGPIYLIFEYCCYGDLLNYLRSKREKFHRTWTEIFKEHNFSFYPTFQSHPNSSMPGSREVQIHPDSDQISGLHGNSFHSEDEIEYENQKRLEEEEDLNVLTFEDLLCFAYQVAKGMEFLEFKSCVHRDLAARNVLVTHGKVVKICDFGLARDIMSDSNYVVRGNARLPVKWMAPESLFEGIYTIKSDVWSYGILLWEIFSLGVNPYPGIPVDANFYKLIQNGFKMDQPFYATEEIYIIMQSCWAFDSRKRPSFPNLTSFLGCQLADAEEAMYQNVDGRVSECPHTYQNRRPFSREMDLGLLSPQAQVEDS
Kind of experiment: flow cytometry on RS4;11 cells, anti-His-PE detection. A general note: In flow cytometry, cells or beads pass a laser one at a time.

The target in experiment [1] is T2, recombinant soluble FLT3 (human, UniProt P36888 27-541, limits assumed).
T2 construct: For the ELISA it says only 'recombinant soluble FLT3'; also called soluble recombinant FLT3; Fms-like tyrosine kinase 3
T2 sequence (looked up): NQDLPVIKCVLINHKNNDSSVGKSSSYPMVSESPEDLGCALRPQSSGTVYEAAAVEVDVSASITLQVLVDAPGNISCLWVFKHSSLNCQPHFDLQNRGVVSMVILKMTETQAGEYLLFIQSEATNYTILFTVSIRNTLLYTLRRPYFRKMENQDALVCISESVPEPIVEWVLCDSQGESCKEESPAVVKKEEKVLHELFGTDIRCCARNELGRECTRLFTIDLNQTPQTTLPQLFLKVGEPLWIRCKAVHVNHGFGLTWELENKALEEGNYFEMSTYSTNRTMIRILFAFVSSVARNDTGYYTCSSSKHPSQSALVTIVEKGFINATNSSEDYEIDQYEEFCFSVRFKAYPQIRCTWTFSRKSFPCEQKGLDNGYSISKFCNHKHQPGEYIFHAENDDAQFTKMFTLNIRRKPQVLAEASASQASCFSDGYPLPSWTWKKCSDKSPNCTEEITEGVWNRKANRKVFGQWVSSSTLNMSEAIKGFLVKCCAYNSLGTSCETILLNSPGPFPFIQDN
Kind of experiment: ELISA on recombinant soluble FLT3 (FIG. 1C). Background: In an ELISA, binding on a coated surface is turned into a signal by an enzyme label.

The target in experiment [2] is T2, recombinant soluble FLT3. Nature of the experiment: ELISA on recombinant soluble FLT3 (FIG. 1B).
The target of experiment [3] is T2, recombinant soluble FLT3. Nature of the experiment: ELISA on recombinant soluble FLT3 (FIG. 1A).

B1: m1012 (VHH)
VHH: EVQLVESGGGLVQPGGSLRLSCAASRFYFSGYEMSWVRQAPGKGLEWVSAISGSGGSTYYADSVKGRFTISRDNSKNTLYLQMNSLRAEDTAVYYCARRVVGAKLYFQHWGQGTLVTVSS
notes: Human VH single-domain antibody (not camelid) from a phage display VH domain library; Detected with anti-His-PE; also called single-domain antibody m1012
With B1, the binding result with cell-surface FLT3 and with recombinant soluble FLT3 [1] was “binds” each time.

B2: m1008 (scFv)
scFv: QVQLQESGPGLVKPSQTLSLTCTVSGGSISSSGYYWSWVRQSPGKGLEWIGEIYQSGNTNYNPSLKSRVTISVDKPKNQLSLKLGSVTAADTAVYYCARGGSYYDYWGQGTLVTVSSGGGGSGGGGSGGGGSQSVVTQPPSVSAAPGQKVTISCSGSNSNIGNNYVSWYQQLPGTAPKVLIYDNNVRPSGIPDRFSGSKSGTSATLGITGLQTGDEADYYCETWDSSLNVGMFGGGTQLIVL
notes: Fully human; isolated from a phage display scFv library; Detected with anti-His-PE
Turning to B2, the binding result with recombinant soluble FLT3 [2] and in the experiment with cell-surface FLT3 was “binds” in each case.

B3: m1006 (antibody, V domains shown)
VH: EVQLVESGGGLVQPGGSLRLSCAASGFTFSSYGMHWVRQAPGKGLEWVAVISYDGSNKYYADSVKGRFTISRDNSKNTLYLQMNSLRAEDTAVYYCANLAPWAAYWGQGTLVTVSS
VL: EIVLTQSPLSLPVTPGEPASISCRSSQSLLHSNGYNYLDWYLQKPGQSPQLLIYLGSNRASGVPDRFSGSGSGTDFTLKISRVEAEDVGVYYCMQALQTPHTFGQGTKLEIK
notes: Fully human; isolated from a phage display Fab library
Turning to B3, the binding result with recombinant soluble FLT3 [3] and in the experiment with cell-surface FLT3 was “binds” in each case.

B4: m1007 (antibody, V domains shown)
VH: EVQLVESGGGVVQPGGSLRLSCAASGFTFSSYGMHWVRQAPGKGLEWVAVISYDGSNKYYADSVKGRFTISRDNSKNTLYLQMNSLRAEDTAVYYCANLAPWAAYWGQGTLVTVSS
VL: not shown
notes: as for B3
In the case of B4, the binding result in the experiment with recombinant soluble FLT3 [3] and with cell-surface FLT3 was “binds” in each case.

B5: m1009 (scFv)
scFv: EVQLVQSGGGLVQPGGSLRLSCAASGFTFSSYAMSWVRQAPGKGLEWVSGISWNSGSIGYADSVKGRFTISRDNAKNSLYLQMNSLRAEDTALYYCAKVGGGGAFDIWGQGTMVTVSSGGGGSGGGGSGGGGSQSVLTQPPSVSAAPGQKVTISCSGSSSSIGDNYVSWYQQVPGTAPKLLIYGNNKRPSGIPDRLSGSKSGTSATLGITGLQTGDEADYYCGTWDNSLGGVFGGGTKLTVL
notes: as for B2
Turning to B5, the binding result with recombinant soluble FLT3 [2] and with cell-surface FLT3 was “binds” each time.
